Where “and” joins values, the source holds several entries; their conditions need not be identical. Equal values may be shown once. Read-outs that look alike come from different tables or passages of the source.
Key:
[1] = biological target: extracellular domain of Ep-CAM (DIGylated) (UniProt P16422); test: antigen binding
[2] = biological target: recombinant human Ep-CAM/Fc (R&D Systems) (human) (UniProt P16422); test: SPR
[3] = biological target: recombinant human Ep-CAM/Fc (R&D Systems) (human) (UniProt P16422); test: SPR; remark: listed apart in the source
FcgRI = test: SPR

Chain of extracellular domain of Ep-CAM (DIGylated) (P16422 24-265): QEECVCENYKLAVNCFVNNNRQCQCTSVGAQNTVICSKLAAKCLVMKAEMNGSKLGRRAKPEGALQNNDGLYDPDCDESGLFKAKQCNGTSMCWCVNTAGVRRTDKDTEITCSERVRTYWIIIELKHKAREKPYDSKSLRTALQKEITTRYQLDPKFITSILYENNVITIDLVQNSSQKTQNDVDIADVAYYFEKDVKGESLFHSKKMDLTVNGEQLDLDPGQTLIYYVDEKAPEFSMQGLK
Chain of recombinant human Ep-CAM/Fc (R&D Systems) (human) (P16422 24-265): as above

Row | Substance | EC50 [1] | Kd [2] | Kd [3] | Kd (FcgRI)
1 | Wild-type IgG1 Ep-CAM antibody (17-1A H0L0 variable regions, chimeric human IgG1) | 1.9E-07 ? and 2.5E-07 ? | 158 nM | 159 nM | 
2 | H3.77_L3 S239D IgG1 (from UniProt P01857 1-330) |  |  |  | 1.37 nM

Reference: US20070122406A1
